The text below walks through data of patent US20230076357A1.

What all share (test): cell-based or functional assay
The target in test [1] is nCas9-LZ1 (NLS-SpCas9(H840A)-NLS-EE12RR345L(leucine zipper)) (Streptococcus pyogenes serotype M1) (UniProt Q99ZW2).
Test [2] addresses nCas9(1-1172)-Npu N intein (Streptococcus pyogenes serotype M1) (UniProt Q99ZW2).
Test [3] addresses constitutively active SAMHD1 (SAMHD1 (T592A)) (UniProt Q9Y3Z3).

Sequence of constitutively active SAMHD1 (SAMHD1 (T592A)) (Q9Y3Z3 whole entry T592A): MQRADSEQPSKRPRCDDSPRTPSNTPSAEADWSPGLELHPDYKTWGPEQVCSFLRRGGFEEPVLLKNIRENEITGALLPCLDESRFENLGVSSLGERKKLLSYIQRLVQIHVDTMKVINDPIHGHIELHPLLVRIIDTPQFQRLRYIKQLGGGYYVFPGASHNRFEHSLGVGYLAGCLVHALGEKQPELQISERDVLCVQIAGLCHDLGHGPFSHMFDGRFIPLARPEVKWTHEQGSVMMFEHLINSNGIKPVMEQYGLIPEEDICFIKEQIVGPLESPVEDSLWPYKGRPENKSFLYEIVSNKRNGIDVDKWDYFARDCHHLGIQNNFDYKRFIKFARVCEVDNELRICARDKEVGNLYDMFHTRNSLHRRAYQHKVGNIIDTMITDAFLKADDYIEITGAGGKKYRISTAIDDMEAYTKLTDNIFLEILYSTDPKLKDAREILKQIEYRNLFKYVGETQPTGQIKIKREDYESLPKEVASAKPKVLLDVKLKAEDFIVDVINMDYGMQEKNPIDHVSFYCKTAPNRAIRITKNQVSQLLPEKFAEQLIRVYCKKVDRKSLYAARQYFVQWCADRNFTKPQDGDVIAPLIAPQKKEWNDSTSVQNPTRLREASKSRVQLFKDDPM

“LZ2-mlvRT (RR12EE345L(leucine zipper)-mlvRTv(D200N, L603W, T306K, W313F, T330P)-NLS) (enzyme)” showed an editing efficiency (BFP to GFP conversion in HEK293T-BFP cells) in test [1] of 38%.

“Npu C intein-nCas9(1173-1368 with S1173C)-mlvRT5M (enzyme)” showed an editing efficiency (% GFP+) in test [2] of 29%.

On to “VPX^RH2-1 (variant of VPX from HIV-2 clinical isolate RH2-1) (from UniProt P20881 1-112)”, for which the editing efficiency with RW2I, edit 2 nt from the nick, SAMHD1 (T592A) coexpressed in test [3] came out at 64%.

In test [3], “Vpx peptide (Hiv2-rod Vpx) (from UniProt P06939 1-112)” came in with an editing efficiency relative to that without SAMHD1^p-, edit 65 nt from the nick of 78%.
